From PMC6021441, “Structural basis of the correct subunit assembly, aggregation, and intracellular degradation of nylon hydrolase” (Scientific Reports, 2018)

Columns and labels:
[1] = target: T1, NylCp2 alpha subunit (27 kDa), wild type (Arthrobacter, UniProt Q79F77 1-266); experiment: crystal structure; sitting-drop vapor diffusion, ammonium sulfate, 0.1 M HEPES pH 7.5, 0.2 M NaCl, 25% glycerol; space group C222_(1), two molecules (A/B dimer) in the asymmetric unit, tetramer by the crystallographic two-fold axis; conditions: both partners purified
T1 construct: NylCp2, alpha subunit made by autocleavage of the 355-residue precursor between Asn266 and Thr267; also called α subunit; source: E. coli JM109, purified with the beta subunit as the active enzyme
T1 sequence (looked up): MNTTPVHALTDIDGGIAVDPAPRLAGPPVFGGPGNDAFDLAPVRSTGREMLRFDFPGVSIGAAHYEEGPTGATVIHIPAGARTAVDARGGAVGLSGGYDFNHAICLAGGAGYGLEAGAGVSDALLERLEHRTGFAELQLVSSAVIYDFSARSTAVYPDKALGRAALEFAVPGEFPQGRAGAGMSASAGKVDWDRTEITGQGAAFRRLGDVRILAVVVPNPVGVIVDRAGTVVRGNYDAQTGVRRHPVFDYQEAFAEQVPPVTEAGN

[2] = target: T2, NylCp2-G^122Y^130 alpha subunit (D122G/H130Y) (Arthrobacter, UniProt Q79F77 1-266, D122G | H130Y); experiment: as above; conditions: both partners purified
T2 construct: NylCp2 alpha subunit with D122G and H130Y; also called α subunit of NylCp2-G^122Y^130; source: E. coli JM109, purified with the beta subunit as the active enzyme
T2 sequence (looked up): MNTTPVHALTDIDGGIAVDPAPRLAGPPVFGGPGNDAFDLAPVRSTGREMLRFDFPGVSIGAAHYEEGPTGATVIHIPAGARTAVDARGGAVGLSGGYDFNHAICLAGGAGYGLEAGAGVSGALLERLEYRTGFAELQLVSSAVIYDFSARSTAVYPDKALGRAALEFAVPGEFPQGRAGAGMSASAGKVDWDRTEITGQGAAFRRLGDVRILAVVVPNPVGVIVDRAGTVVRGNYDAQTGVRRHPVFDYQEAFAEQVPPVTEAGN

B1: NylCp2 beta subunit (9 kDa) (domain or fragment, Arthrobacter, UniProt Q79F77 267-355, looked up)
chain: TTISAIVTNVRMSPVELNQFAKQVHSSMHRGIQPFHTDMDGDTLFAVTTDEIDLPTTPGSSRGRLSVNATALGAIASEVMWDAVLEAGK
notes: NylCp2, beta subunit made by autocleavage of the 355-residue precursor between Asn266 and Thr267; the same in the wild type and in the mutants crystallised here (all their substitutions lie in the alpha subunit); also called β subunit; source: E. coli JM109, purified with the alpha subunit as the active enzyme
[1]
  binding result: binds
[2]
  binding result: binds
